Experimental data as given in patent US20030206886A1 (UNIVERSITY OF MEDICINE AND DENTISTRY OF NEW JERSEY, published 2003).

B1: murine IL-4 (ligand, UniProt P07750 21-140, looked up)
chain: HIHGCDKNHLREIIGILNEVTGEGTPCTEMDVPNVLTATKNTTESELVCRASKVLRIFYLKHGKTPCLKKNSSVLMELQRLFRAFRCLDSSISCTMNESKSTSLKDFLESLKSIMQMDYS
notes: also called mIL-4
B2: human IL-10 (ligand, UniProt P22301 19-178, looked up)
chain: SPGQGTQSENSCTHFPGNLPNMLRDLRDAFSRVKTFFQMKDQLDNLLLKESLLEDFKGYLGCQALSEMIQFYLEEVMPQAENQDPDIKAHVNSLGENLKTLRLRLRRCHRFLPCENKSKAVEQVKNAFNKLQEKGIYKAMSEFDIFINYIEAYMTMKIRN
notes: also called hIL-10

Columns and labels:
[1] = biological target: T1, murine IL-10 receptor IgG immunoadhesin (murine, UniProt Q61727 17-241); experiment: bead depletion assay, FIG. 3 top
T1 construct: Used as specificity control; also called murine IL-10 R immunoadhesin; murine IL-10 receptor immunoadhesin; not shown: IgG backbone
T1 sequence (looked up): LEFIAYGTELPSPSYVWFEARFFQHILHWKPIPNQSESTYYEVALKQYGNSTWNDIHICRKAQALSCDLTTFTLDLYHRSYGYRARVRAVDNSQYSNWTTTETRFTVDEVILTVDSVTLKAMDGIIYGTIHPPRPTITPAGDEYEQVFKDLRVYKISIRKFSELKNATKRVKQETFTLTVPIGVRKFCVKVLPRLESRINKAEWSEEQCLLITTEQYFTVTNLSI

[2] = biological target: T2, human IL-10 receptor immunoadhesin (isotype not stated, control of FIG. 3 bottom) (human, UniProt Q13651 22-235); experiment: ELISA inhibition, FIG. 3 bottom
T2 construct: extracellular domain; not shown: human IgG1 or IgA1 hinge-CH2-CH3
T2 sequence (looked up): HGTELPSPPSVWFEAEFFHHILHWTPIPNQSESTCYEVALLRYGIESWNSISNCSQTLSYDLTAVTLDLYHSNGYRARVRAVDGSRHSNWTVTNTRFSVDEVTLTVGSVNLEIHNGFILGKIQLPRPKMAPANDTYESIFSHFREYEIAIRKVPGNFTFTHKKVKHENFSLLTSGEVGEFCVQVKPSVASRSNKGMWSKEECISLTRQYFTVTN

[3] = biological target: T3, murine IL-4 receptor IgG immunoadhesin (murine, UniProt P16382 26-233); experiment: bead depletion assay (immunoadhesin on beads, unbound hIL-10 in filtrate by ELISA), FIG. 1 top
T3 construct: Tested as concentrated supernatant of vaccinia-infected cells; also called murine IL-4 receptor immunoadhesin; mIL-4R IgG immunoadhesin; not shown: IgG backbone
T3 sequence (looked up): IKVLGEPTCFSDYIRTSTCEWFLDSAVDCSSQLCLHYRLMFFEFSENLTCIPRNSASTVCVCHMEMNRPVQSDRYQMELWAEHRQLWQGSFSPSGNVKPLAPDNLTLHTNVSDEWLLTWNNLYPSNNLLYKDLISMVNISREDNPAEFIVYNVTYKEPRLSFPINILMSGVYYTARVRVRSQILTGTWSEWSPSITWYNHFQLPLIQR

[4] = biological target: T1, murine IL-10 receptor IgG immunoadhesin; experiment: as above
[5] = biological target: T4, human IL-10 receptor IgG immunoadhesin (human, UniProt Q13651 22-235); experiment: bead depletion assay, unbound hIL-10 by ELISA, FIG. 1 top
T4 construct: extracellular domain; Tested as concentrated supernatant of cells infected with recombinant vaccinia; also called human IL-10R adhesin; human IL-10 R adhesin; not shown: human IgG1 heavy chain hinge, CH2 and CH3 domains, amplified from ARH-77 cDNA; joined through a SalI site; residue limit
T4 sequence (looked up): T2 sequence (looked up)

Row | Binder | binding result [1] | binding result [2] | binding result [3] | binding result [4] | binding result [5]
1 | B1 | no binding (tested: 250 µl of 200 pg/100 µl of mIL-4) | no binding |  |  | 
2 | B2 |  |  | no binding (tested: 250 µl of 200 pg/100 µl of hIL-10) | no binding (tested: 250 µl of 200 pg/100 µl of hIL-10) | binds
